Results from the supplement of paper PMC12042874.
± gives the uncertainty stated by the source.

Test: amyloid nucleation score (Sup35N fusion, yeast selection) (log enrichment); library NNK3; higher = more nucleation; inactive = no reads after selection
How it was run: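 DiMSum was used to calculate nucleation scores as log enrichment of output over input reads, centred on the mode score of non-aggregating sequences. Sequences with fewer than 100 input reads were not scored. Input and output came from Illumina sequencing of plasmid inserts in psi-negative yeast expressing peptides of 20 random codons fused to Sup35N, induced 24 hours with 100 μM copper sulfate and then grown 7 days at 30°C on medium lacking adenine and uracil.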

Substance | amyloid nucleation score
SFSPFVTFNKWSRWGLRNIG | inactive
TLSLPLMTRWSLYLCSDWAS | inactive
ETVDSFVM | inactive
ANSWSMLHVECFYML | 2.44 ± 0.058
SSSQTISQGDSGHLHYKVWS | inactive
ISTKDTLM | inactive
LSMSAVL | inactive
VKSVLFDGKL | inactive
EPTVC | inactive
FWRLRWYMRDGFSDYSGGEY | 0.719 ± 0.13
FSGCWRWNNQ | inactive
YLSVIKNTIPEMWIIVGVCR | inactive
NRIFSLTM | inactive
YFSAIFFDSLYMLYGSNRAV | 0.356 ± 0.24
RDFATTNGRDNIELHSQGNY | inactive
RGMISVMPSVIGPAL | inactive
AFVDAQQVNGLYGWYDSKCD | inactive
AFRTFSFLGITS | inactive
PRPLGLFTSYDNGLGYRQGQ | inactive
HAGATL | inactive
LSVELCTCGVRPQATYYPQG | 1.31 ± 0.13
KTYEETSDTYYFQVLFTNPI | inactive
AICVLRSMKLLYQVWTW | inactive

Substance | amyloid nucleation score
EGRNFRCLFG | inactive
LDRFENINRL | inactive
NWLMSTTFRAYGV | inactive
TVFSDFSGSKEMTVTIRRWV | inactive
TVLWFSC | inactive
GNYSREVRKNVYPETGVRQM | inactive
MIWAEQGFFVRWWDLFA | inactive
LKYSHEHGFFSYYACWCQQL | inactive
YHSLYTAPDEGLFYRNRRKF | inactive
FLTFHGC | inactive
FLGSYSLTDRIRWVTFPLFQ | inactive
SVYGKFILAAVAGLRFGGLK | inactive
NHESVVWDMNGHPSPVGRGE | inactive
VIFNHVLACADYGVHKVVDL | inactive
QWVVEHRFWLVYNGEHRNSY | 0.762 ± 0.15
LLMGSSSSV | inactive
IDFRFFQPQAVCGNLSCYRE | 0.227 ± 0.23
NKDFGFSYIRTFPRILKVW | inactive
RRKLRGALTVEMVFSPVYRR | inactive
SHVSRVNEVSVISMSDINDH | inactive
HNSRFPSF | 0.338 ± 0.58
CRLPLQSL | inactive
FINAVAIRMIILVSRTRPTF | 0.984 ± 0.12

Substance | amyloid nucleation score
VCLDHHGVGFYVRSSSCSS | inactive
GCVRGCTATWRMLCAGSKCC | 0.71 ± 0.33
PVWFTYQHHCWVKLICV | inactive
KCAEL | inactive
HLPKLLYATFKWSRYSSKFA | -0.172 ± 1.3
VPQNVGVLWSRRQEAVVLVS | inactive
LLIIVYLVWCALIRRGTQPR | inactive
SILMTVYDGYHKRSKNIAQC | inactive
IFNALCYTWESRFLRTEVVS | inactive
KSYLVFDPWGPAKSLFYTDM | inactive
FQWITSIRSSKKMGCY | inactive
MGQFVRYLMADSCL | inactive
SCVGNLENTIYNMVVRNCCY | inactive
KSVKARYSDSSMW | inactive
CSLNLCVKDTHIHEN | inactive
YYLVSSMFYMFQSNEVNGNM | inactive
LVSHLIGFSCRFNPRSERFC | 1.29 ± 0.1
YSTRPSYFLDLMLYIDTWVQ | inactive
WFEEATRGRNETS | inactive
LIAMICSLGTYFLIVAFELI | inactive
FICVCSNWGFIQNMITAPDW | 2.77 ± 0.074
LLSPQFRRIGSFRWKFAPRF | inactive
TWQEVMNVQRTS | inactive

Substance | amyloid nucleation score
THKVWFKCVDAYNLAYVNSI | inactive
HNLVSSSSTCCRRHPCMAG | inactive
YFNGATS | inactive
YDGCDS | inactive
QVKLGRTLTSGQGFTQLHSV | -0.852 ± 2.5
SILTMLPKFGFVESLLECEG | inactive
FTYVNSHECWLVKDMVAYFL | 3 ± 0.073
TNCGNQTILFIIYVTILEVC | 0.397 ± 0.14
EDFLNSWKVSYWKNHTMVVW | inactive
RRYVDRYEAIWWCFCIRKLF | inactive
WMDIYW | 0.403 ± 0.24
IFWHQRRLMTCCNKYTFGYG | inactive
LVTSTSMG | 2.77 ± 0.068
GLFRFFVIIITEEVRRAVSK | inactive
SGIMSHVGGTELLNSLHLMF | inactive
DRVCSSRML | inactive
RDVMWVNHVYCMLEFWTWVV | inactive
YGSIV | inactive
TVEVFNHMRERHNYMS | inactive
MSVRGHSSTVVYLCREPGLK | 0.402 ± 0.38
QSGTLLGLLHQANYLGYAF | inactive
STRRSYNPCYWSGLYSSIGH | inactive
RNIELSAPLFWSAAASDVVK | inactive

Substance | amyloid nucleation score
NTGWSF | inactive
IADCVLIN | inactive
IKCIPFCDVGWSLTVLRYVT | inactive
IEIFEFFSRSSNRSQPGAPL | inactive
TYFHIRCVV | inactive
IFNGRDNLQLDVWLGGYFLV | inactive
ARLEMVFLPSPIFVNRPGNA | inactive
WYSYPNFG | inactive
AAPCFVKLLHGLVVRVQVVM | inactive
DKALS | inactive
YIIFNFIDFYKPGWGFQWTV | 2.82 ± 0.052
YCVWFPSVCFIRRYVSIRLI | inactive
HGTIVIDYRHSPW | 1.07 ± 0.1
FSGSTSLCLMMRYTSTVR | 0.359 ± 0.25
IRFAAMFFALLLRRDESSYE | inactive
FCYVSCLS | inactive
ALSYLSVLRSMLSRVVLCYL | inactive
LNTGLLLLCG | inactive
FFRDQLRRLYLSSALMQFRM | inactive
TRPLSDPVLINVYWRETSYP | -0.33 ± 0.47
RDCDDQ | inactive
IYGWWLGTTYM | 0.656 ± 0.21
LARFMANLTGNC | inactive

Substance | amyloid nucleation score
LAFVANY | inactive
RKSIGSLG | inactive
STCKKNWNIARRI | inactive
VPGLHLSNPTAELDMQI | inactive
IDIVCAF | inactive
SYCHRRLLSRVSLLVASSVK | inactive
TKMDETDLLMFAVLTGGLNG | inactive
CPPGWRCQHKLDLTLGPDRW | inactive
LNYNF | inactive
SGITIEF | inactive
EICGCCWKPVMWTGRCSCVY | inactive
AMMHNIILFKFVLGYVLMSR | inactive
KKPPHRLTVLMTGIAM | inactive
VSMSLDCM | inactive
LPYYCSIDAVMCREPTGLGS | inactive
CLTGRLLKSSVIRWRKYMNV | inactive
NKFKHESNTNYIPSRQYKVW | inactive
DRRNNVRFVVLFSRRYCGQA | inactive
IYLMISWQWGSGLQPNIRPA | inactive
CWNDSLLCYMSSTMGNVQTT | inactive
ESLIRVICMVDERSEQTWSG | inactive
HMLSNFGARVREYIAMFGRL | inactive
LYFNWWTRGTAMLYGI | inactive

Substance | amyloid nucleation score
SLDFIHRNFVARQCIHNKGH | inactive
ESMRGSYSYYSSGCLHD | inactive
WHTAKGTWSTGRQEDTGQSR | inactive
QIIYISSLFTYDSYYKFRLH | inactive
FLNTLFYHMGT | inactive
YISNMLTLSPAKVSHKSWVI | 0.186 ± 0.29
IDLTTDSLDM | inactive
SKYPRLSCHRIRNVRLGWTL | 1.34 ± 0.085
SGFSYRFRDSMGLDKYRCAN | inactive
GNIVLMMSYILM | 2.3 ± 0.086
SFYPLCRQAVTDMFNKHCFP | inactive
IWSLDNARNYSIVRSVWLG | inactive
DKRFELNRALLTVPWDQNRA | inactive
STKSSLRYNLEQLPDLLKIV | inactive
IWIRAVDLGLDGLPSFFSIS | inactive
KVCVIVVLLHTTRCQKFYQY | inactive
RKYCYGMSLFTDMTMLVRRK | inactive
HSSSLLRLQPVVHYLLLNVD | inactive
EVVKLVR | inactive
DTSVYFQSSTCCAKKSGHKP | inactive
LCDVQNTNNW | inactive
FYSMSLVSFCFYGDLYLDNG | 2.76 ± 0.077
